Laboratory results reported in US20220047684A1, “ENZYMES AND METHODS FOR PREVENTING AND TREATING […] IN ANIMALS” (Ecto Development Corporation, priority 2020, published 2022).

Columns and labels:
Format in all cases: biochemical
[1] = pNPA method esterase (carboxylesterase) activity assay of spore productions; details: 30° C. for 30 minutes, absorbance at 400
Procedure: Each of the identified enzymes were evaluated for esterase activity assay using pNBA method described below. Determination of carboxylesterase activity of cargo enzyme in Bacillus thuringiensis spore productions or of free enzyme productions. Three active carboxylesterases cloned into pBCm (Bt EO) and pET28a (E. coli BL21) systems: pnbA (B. subtilis), PytH2 (Sphingobium wenxiniae strain), and MsE1 (Methylobacterium sp). p-Nitrophenyl acetate was the substrate in assays for esterase activity. The hydrolysis of p-nitrophenyl acetate releases p-nitrophenol and acetate, and while p-nitrophenyl acetate is colorless, p-nitrophenol is yellow.
6 mg p-Nitrophenyl acetate (pNPA, CAS #830-03-5, MW: 181.1 g/mol) was weighed and dissolved in 1 mL methanol (CAS #67-56-1, MW: 32.04 g/mol). Stored at −20° C. and kept on ice when preparing reactions.
8.0 g sodium chloride (NaCl, CAS #7647-14-5, MW: 58.44 g/mol), 1.44 g sodium phosphate dibasic was dissolved (Na2HPO4, CAS #7558-79-4, MW: 141.96 g/mol), and 0.24 g potassium phosphate monobasic (KH2PO4, CAS #7778-77-0, 136.09 g/mol) in 800 mL DI H20, then adjust pH to 7.4 using hydrochloric acid (HCl, CAS #7647-01-0, MW: 36.46 g/mol). Make 100 mL aliquots and autoclave.
Esterase from rabbit liver (CAS #9016-18-6, Sigma E0887-powder). Store at −20° C. To prepare a stock dissolve 1 mg in 1 mL PBS, kept on ice when using.
Up to 1 mL spore production was pelleted up for 5 min at max speed. Supernatant was discarded without disturbing spore pellet and suspend pellet in ice-cold PBS. Spores kept suspended on ice until use.
The assay was run at 30° C. for 30 minutes. The assay was shaken continuously. Activity was read on (A) 400 BioTek Synergy/HTX microplate reader was used. The results of pNPA hydrolysis are shown in Table 3 depicting carboxylesterase enzyme activity for each of the five strains using pNPA hydrolysis.

[2] = Fenpropathrin degradation, HPLC; details: 20 ppm fenpropathrin; 15 minutes at 37 C with shaking
Procedure: 1000 ppm fenpropathrin was diluted to 5 point curve which was able to detect on HPLC the gradient of 20% water and 80% using the instrument method described above for permethrin. 20 ppm of […] was placed in […] with 10 μL […] and reacted for 15 minutes at 37 C with shaking. HPLC was run on the sample after being diluted 1:1 MeOH using instrument method described above for permethrin. A 90% degradation of fenpropathrin was detected with PytH2.

[3] = Characterisation of purified recombinant PytH2 carboxylesterase on p-nitrophenyl esters
Procedure: Protein is a carboxylesterase from Sphingobium wenxiniae produced by PytH2 recombinant, expressed in E. coli BL21 (DE3) IUBMB: 3.1.1.88 CAS: 9016-18-6. The Chemical Composition of the carboxylesterase has Chemical purity: >90% buffer of 10 mM phosphate (pH 7.4), 2.7 mM KCI, 137 mM NaCI. Post translational procedures produced in a protease deficient E. coli strain and optimized for synthesis. The protein Appearance: clear, colorless solution:
Unit definition: One unit is defined as the amount of enzyme required to generate 1 μmol/min of 4-p-nitrophenol from 4-nitrophenyl-L-acetate at 30° C. and pH 7.4. Specific activity: 15±3 μ/mg
The enzyme is also deactivated by surfactant compounds such as SDS.
An esterase gene (PytH2) of Sphingobium wenxiniae containing an open reading frame (ORF) of 873 bp. The ORF of PytH2 was expressed in Escherichia coli, under the control of the promoter T7. […] E. coli BL21(DE3)/pET28 containing PytH2 expressed a novel 31.4-kDa protein corresponding to PytH2 in an N-terminal fusion with the His-tag peptide. The recombinant Sphingobium wenxiniae PytH2 protein was purified to electrophoretic homogeneity in a one-step affinity chromatography procedure on Ni-NTA Resin. The optimum pH and temperature of the purified enzyme were 7.0 and 37 degrees C., respectively. […] It was also active on pNP-butyrate(C(4) and pNPcaproate(C(6)).

[4] = Biological permethrin assay for esterase activity (activity units of esterases); details: esterases used in reaction mix for scud assay
Procedure: A biological permethrin assay was performed for control, and three esterases pnbA, pytH2 and MsE1. The sensitivity of scuds (Hyalella Azteca) to permethrin was tested with three esterases pnbA, pytH2 and MsE1.
For control and each of the three esterases pnbA, pytH2 and MsE1, ten scuds were exposed to permethrin and one of pnbA, pytH2 or MsE1.
• 100 μL 50% MeOH in PBS • 0.2 μg/μL
• 37 degree C. • 18 hr • Shanking 1000 rpm Transferred 20 μL rxn mix [4 μg] to 100 mL [containing 10 scuds] At time, 24 h and 48 h the ten scuds were scored: A=Alive and Moving actively BA=Barely Alive—Difficulty swimming away; only legs are moving D=Dead—Not moving at all The results of which are shown in FIGS. 8 and 9.

B1: E3: carboxylesterase PytH2 (pytH) from Sphingobium wenxiniae, amino acid SEQ. ID No. 3, DNA SEQ. ID No. 6; recombinant, His-tagged (protein, listed as Sphingobium wenxiniae)
chain: MTVTDIILIHGALNRGACYDAVVPLLEARGYRVHAPDLTGHTPGDGGHLSVVDMEHYTRPVADILARAEGQSILLGHSLGGASISWLAQHHYDKVAGLIYLTAVLTAPGITPETFVLPGEPNRGTPHALDLIQPVDEGRGLQADFSRLERLREVFMGDYPGEGMPPAEQFIQTQSTVPFGTPNPMEGRALEIPRLYEALDDVVIPIAVQRQMQKEFPGPVAVVSLPASHAPYYSMPERLAEAIADFADAPAEYRQTATKAGPDRPAGADGGRADRADLP
modifications: His tag
notes: ID No. 6; recombinant, His-tagged
pNPA hydrolysis [1]: 26.3 ± 0.9 nmol pNPA/min/1E+8 spores | degradation of fenpropathrin [2]: 90% | cofactor requirement for activity [3]: does not require a cofactor | stability of the enzyme [3]: quite stable | activity after heat incubation ([3]; after incubation at 70° C.): inactive | effect of metal ions on the enzyme ([3]; metal ions, can recover activity): strongly inhibited | Specific activity ([3]; one unit = 1 μmol/min 4-p-nitrophenol from 4-nitrophenyl-L-acetate at 30° C. and pH 7.4): 15±3 μ/mg | substrate preference among pNP (p-nitrophenyl) esters: pNP-acetate (C(2)) ([3]; pNP-acetate): best substrate | activity on pNP-butyrate ([3]; pNP-butyrate(C(4))): active | activity on pNPcaproate ([3]; pNPcaproate(C(6))): active | optimum pH ([3]; purified enzyme): 7.0 | optimum temperature ([3]; purified enzyme): 37 degrees C. | effect of surfactant compounds on the enzyme ([3]; surfactant compounds such as SDS): deactivated | Activity units [4]: 31.6
